Data published in US20240091307A1, “COMBINATION THERAPIES OF AMUC_1100 AND IMMUNE CHECKPOINT MODULATORS FOR USE IN TREATING CANCERS” (COMMBIO THERAPEUTICS CO., LTD., priority 2020, published 2024).
Residue numbers refer to the chain shown, from its start. Names may count otherwise.

B1: Amuc_1100 (31-317, Y289A): Amuc_1100 (31-317) mutant protein with single point mutation Y289A, numbering relative to SEQ ID NO: 1 (protein)
chain: MIVNSKRSELDKKISIAAKEIKSANAAEITPSRSSNEELEKELNRYAKAVGSLETAYKPFLASSALVPTTPTAFQNELKTFRDSLISSCKKKNILITDTSSWLGFQVYSTQAPSVQAASTLGFELKAINSLVNKLAECGLSKFIKVYRPQLPIETPANNPEESDEADQAPWTPMPLEIAFQGDRESVLKAMNAITGMQDYLFTVNSIRIRNERMMPPPIANPAAAKPAAAQPATGAASLTPADEAAAPAAPAIQQVIKPAMGKEQVFVQVSLNLVHFNQPKAQEPSED
B2: Amuc_1100 (31-317): Naturally-occurring fragment (residues 31-317) of Akkermansia muciniphila outer-membrane protein Amuc_1100; recombinant protein (protein)
chain: B1 chain with A260Y
B3: secreted Amuc_1100 (31-317) from genetically engineered EcN: Amuc_1100 protein isolated from culture media of EcN strain CBT1108 by his-tag antibody resin, endotoxin removed (protein)
chain: B1 chain with A260Y

Key:
TLR2 [1] = molecular target: T1, TLR2 (Homo sapiens, UniProt O60603); assay: TLR2 reporter gene assay in HEK293 cells (QUANTI-Blue); assay type: cell-based; design: host or cells: HEK293; settings: HEK293 cells expressing human TLR2 and reporter gene; FIG. 3B
Experimental: HEK293 cells expressing human TLR2 receptor and its reporter gene (InvivoGen, hkb-htlr2) were seeded in a 96-well plate and treated by […] (31-317) or mutant recombinant Amuc_1100 (31-317, Y289A). The reporter gene activity was detected by QUANTI-Blue™ (InvivoGen, rep-qbs2), and the cell viability was detected by CellTiterGlo (Promega, G7573) by following the reagent kits' instruction. The results were shown in FIG. 3B (Pam3CSK4 is the positive control for TLR2 ligand). […] All agents show no significant impact on cell viability.

[2] = test system: spontaneous breast cancer in MMTV-PyVT transgenic C57BL/6 female mice; assay: Spontaneous breast cancer model, tumor growth rate and H&E staining; assay type: in vivo; settings: Amuc_1100 proteins 3 μg/kg oral gavage daily 4 weeks; anti-PD-1 10 mg/kg i.v. every three days 3 weeks; FIG. 4, FIG. 5
Experimental: The MMTV-PyVT transgenic C57BL/6 female mice were used to develop spontaneous breast cancer. Mice at age of 9.5 weeks were randomly divided into 6 groups with 4-5 mice in each group and were subjected to agent treatment. The mice in the control group were treated with PBS by oral gavage daily for 4 weeks, plus PBS i.v. injection daily after one week of oral gavage for 3 weeks. […] All the spontaneously developed tumors were monitored. Tumor sizes were measured twice every week. The health status of mice was closely monitored. Tumor growth rate of each tumor in mouse following agent treatment was analyzed. […]

[3] = Body weight gain in mouse model; assay type: in vivo, mice; settings: 3 μg/kg oral gavage daily for 4 weeks; compared to PBS control group
Experimental: Mice at age of 9.5 weeks were randomly divided into 3 groups with 4-5 mice in each group and were subjected to agent treatment. The mice in the control group and test groups were treated with PBS, Amuc_1100 (31-317), or Amuc_1100 (31-317, Y289A) (3 μg/kg) by oral gavage daily for 4 weeks, respectively. The body weight of each mouse in each group was measured twice every week.

[4] = test system: proteases trypsin and α-chymotrypsin; assay: Protease digestion stability (trypsin and α-chymotrypsin, SDS-PAGE, Coomassie blue); assay type: in vitro ADME; settings: trypsin 0.01 mg/ml and α-chymotrypsin 0.01 mg/ml, 37° C., 30 min; versus wild type; FIG. 3A
Experimental: Recombinant Amuc_1100 wild type (WT) and mutant protein are digested by proteases trypsin (0.01 mg/ml) and α-chymotrypsin (0.01 mg/ml) at […] for 30 min. The samples are subjected to SDS-PAGE gel electrophoresis and Coomassie blue staining. Lane A: Amuc_1100 (31-317, Y289A) without proteases; Lane B: Amuc_1100 (31-317, Y289A) with proteases; Lane C: Amuc_1100 (31-317, WT) without proteases; Lane D: Amuc_1100 (31-317, WT) with proteases; MW: molecular weight marker (KD).)
Some mutants of the […] (31-317) may reduce protein degradation by proteases. The amino acid sequence (SEQ ID NO: 146) and nucleotide sequence (SEQ ID NO: 147) of Amuc_1100 (31-317, Y289A) with 6×His tag at the C-terminus expressed by the plasmid described above (FIG. 1) were shown in FIG. 2. The recombinant Amuc_1100 (31-317) protein and mutant protein (31-317, Y289A) were digested by proteases trypsin (0.01 mg/ml) and α-chymotrypsin (0.01 mg/ml) at 37° C. for 30 min. The samples were then subjected to SDS-PAGE gel electrophoresis and Coomassie blue staining.

TLR2 [5] = molecular target: T1, TLR2; assay: TLR2 reporter assay of Amuc_1100 secreted from engineered EcN; assay type: cell-based; design: expressed in transfected cells; host or cells: HEK293; settings: HEK293/TLR2 reporter cells, 24 hours, colorimetric; protein isolated from CBT1108 culture media; FIG. 17
Experimental: The genetically engineered bacteria EcN strain CBT1108 obtained in Example 6 were cultured, and the culture media was collected at late exponential growth stage. The […] (31-317) protein was isolated from the culture media by his-tag antibody-containing resin column. The endotoxin was removed from the isolated Amuc_1100 (31-317) protein.
The Amuc_1100 (31-317) activity was tested by TLR2 reporter assay. Specifically, HEK293/TLR2 reporter cells were stimulated in 96-well plate with certain amount of protein for 24 hours, the reporter enzyme's substrate was added into the cell media and the activity was measured by colorimetric method.

T1 sequence (O60603 21-784): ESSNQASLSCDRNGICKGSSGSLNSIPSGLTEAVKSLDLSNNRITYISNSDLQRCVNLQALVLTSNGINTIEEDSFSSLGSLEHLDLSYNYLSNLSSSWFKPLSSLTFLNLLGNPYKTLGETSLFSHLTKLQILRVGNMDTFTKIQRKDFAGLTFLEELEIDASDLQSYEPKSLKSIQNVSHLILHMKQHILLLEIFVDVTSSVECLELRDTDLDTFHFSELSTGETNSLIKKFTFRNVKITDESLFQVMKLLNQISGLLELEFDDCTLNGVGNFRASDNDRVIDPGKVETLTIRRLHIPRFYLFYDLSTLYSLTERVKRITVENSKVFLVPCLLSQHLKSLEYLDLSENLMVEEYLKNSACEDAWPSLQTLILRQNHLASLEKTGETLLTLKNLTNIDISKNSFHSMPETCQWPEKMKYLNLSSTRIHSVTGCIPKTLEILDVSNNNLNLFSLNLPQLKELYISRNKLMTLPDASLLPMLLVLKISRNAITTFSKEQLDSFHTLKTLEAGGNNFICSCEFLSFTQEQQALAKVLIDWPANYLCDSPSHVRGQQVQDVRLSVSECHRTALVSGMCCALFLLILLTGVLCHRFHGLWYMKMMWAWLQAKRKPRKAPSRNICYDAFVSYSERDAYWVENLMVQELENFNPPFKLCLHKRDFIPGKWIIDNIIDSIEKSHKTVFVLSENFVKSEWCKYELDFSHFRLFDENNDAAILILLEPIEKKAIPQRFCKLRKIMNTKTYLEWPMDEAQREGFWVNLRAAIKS

Molecule | EC50 for TLR2 activation (TLR2 [1]) [µg/mL] | tumor growth inhibition [2] | changes in body weights [3] | resistance to enzyme digestion [4] | TLR2 signal stimulation (TLR2 [5])
B1 | 0.951 | partially inhibited tumor growth | no significant changes in body weights | more resistant to enzyme digestion compared to wild type Amuc_1100 protein | –
B2 | 0.535 | partially inhibited tumor growth | no significant changes in body weights | – | –
B3 | – | – | – | – | stimulated TLR2 signal
